Measurements from patent publication US20250034594A1, “RNA-GUIDED GENOME RECOMBINEERING AT KILOBASE SCALE” (THE BOARD OF TRUSTEES OF THE LELAND STANFORD JUNIOR …, priority 2021, published 2025).

B1: SSAP_246: SEQ ID NO: 415; Anoxybacillus (protein, listed as Anoxybacillus sp.)
chain: ATTQSLKNQIAKKQNSNIQQGVTLKQLLNSESMKKRFEEVLGKRAQQFATSILNLYNSEKMLQKCEPMSIISSAMVAASLDLPVDKNLGYMYIVPYGTTATPIMGYRGYIQLALRTGQYKHINVIEVYEGELQKWDRLTEEFEMDSKQKKSDVVVGYAAYFELINGFRKTVYWTREQIEAHRKKYSKSDFGWKNDFDAMAKKTVLKSLLSKWGILSIEMQNAFNEDEKEVDTKEVKDITSEVQEAEYIEAEAFEVPIETETPQQEEIVFDAQ
B2: SSAP_86: SEQ ID NO: 255 (protein)
chain: ADLTKTANGADLAAAIGGKQAETGRATAFDLVKSMEAEFAKALPRHVPVEQFMRTAVTELRQNADLQRSTSESLLGAFLTAARLGLEVGGPMGEFYLTPRFAKLPGQDQKAWQVVPIVGYRGLVKLARNAGVGAVKAWVVYEGDHFVEGANSERGPFFDFHPVPGDPAGRKEVGVLAVARLSGGDVQHTYLTIEQVEKRKARGSAGDKGPWATDRAAMIRKSGIRALAGELPQSTLLALARVVDEEVQTYVPGSLVDVGTGELEA
B3: SSAP_84: SEQ ID NO: 253; Bet Fimbriiglobus ruber (protein)
chain: TDIAHRSYSAPQLSLIRRTVAKDTNQDEFDLFIEICKQQGLDPFKKQIFAQVYNKDKADKRQIVIVTSIDGYRAKAQRCGDYRPAEEETRFEADAALKIRRQPMGSFVRSCGLQVRPGQGVVSRVGEARWDEFAPLDDAEFDWVDTGETWPDTGKPKKKKVAKSAKKTLKEGNWKNMPHVMLGKCAEAQALGGGGRKRSAACTSKRRWTRSTWT
modifications: Fimbriiglobus ruber
B4: SSAP_206: SEQ ID NO: 375; Actinopolyspora xinjiangensis (protein, listed as Actinopolyspora xinjiangensis)
chain: TGQTIGTAVAKKDDENPSAIIATNRADLARVMPSHVRTDSWVRIAQGIVRRDKNLAHAARQSPGTLMVALMEAARLGLEPGTEQYYLTPRKNKGKPEVLGIPGYQGLIELMYRSGAVSSVVVETVRENDTFQWAPGRMERPEHEADWFAINGERGQLRGVYAYAIMSNGATSKVVVLNRNDIARARDSAQGADSEHSPWKNHEEAMWLKTAARRLAKWVPTSTEDRRIVQGVAERSDQPTEAPLDLTDEPDTDQPIEGELVDEEATQ
B5: SSAP_90: SEQ ID NO: 259; Xenorhabdus poinarii (protein, listed as Xenorhabdus poinarii)
chain: TNTPPLAQADLQKAQPQTKVAATKDQALIQFINKPSMKAQLAAALPRHMAPDRMIRIVTTEIRKTPALANCDMQSFVGAVVQCSQLGLEPGSALGHAYLLPFGNGKSKTGQSNVQLIIGYRGMIDLARRSGQIVSISARTVRDGDQFHYEYGLNENLTHIPGENEDAPITHVYAVARLQDGGVQFEVMTRKQVEKVREKSSAGNNGPWVTHWEEMAKKTVIRRLFKYLPVSIEMQKAVILDEKADANIDQDNAAIFEGEFEEVGNDG
B6: SSAP_318: SEQ ID NO: 487; Shewanella morhuae (protein, listed as Shewanella morhuae)
chain: QTAQVKLSVPHQQVYQDNFNYLSSQVVGHLVDLNEEIGYLNQIVFNSLSTASPLDVAAPWSVYGLLLNVCRLGLSLNPEKKLAYVMPSWSETGEIIMKLYPGYRGEIAIASNFNVIKNANAVLVYENDHFRIQAATGEIEHFVTSLSIDPRVRGACSGGYCRSVLMDNTIQISYLSIEEMNAIAQNQIEANMGNTPWNSIWRTEMNRVALYRRAAKDWRQLIKATPEIQSALSDTEY
B7: SSAP_126: SEQ ID NO: 295; Marispirochaeta aestuarii (protein, listed as Marispirochaeta aestuarii)
chain: RTDGTKEAGAAATAPTEGKAPAKAHKPADTIGAMIEKLKPQIERALPKHVTPDRMARMALTAIRNNPKLGQAEAVSLMGSIIQASQLGLEPNTPLGQCYIIPYNSKNGMQAQFQMGYKGIVDLAHRSGQYRQLTAHPVDEADEFRYSYGLNPDLVHVPAEKPSGKITHYYAVYHLTNGGFDFRVWSREKVEAHAKQYSKSFSSGPWQTNFDQMACKTVMIDLLRYAPKSVEIAKATSADNRTHTINPEDPDLNIDTIDGDFELEGEER
B8: SSAP_293: SEQ ID NO: 462; Brevibacillus porteri (protein)
chain: ADQNKLVVIYNNLEKLLDSKREAMPTSFNKTRFLQNCMTVLQETKDIELCNPTTVARTMLKGAFLGLDFFNKECYAVVYKGSVEFQTDYKGEVKLAKKYSTKPVREVYAKLVREGDEFAEEINSGNQTINFRPKPFNNEEILGAFAVVNYMDGTMAYDIMSKEEIEKIKENFSRKSKQTGEYSKAWVVTPGEMYKKTVLRRLCKNIDLDFDTIEQRQAFEDAGDVDFNQEVKPAQQSPLNSTVIEAEFEEVSEEQTNAAEQE
modifications: Brevibacillus porter
notes: Brevibacillus porteri
B9: SSAP_245: SEQ ID NO: 414; Paenibacillus macquariensis subsp. defensor (protein, listed as Paenibacillus macquariensis)
chain: SDKLLVIHKNLENLLDSKREAMPSNFNKTRFLQNCMTVLQDTRDIDKCDATSVARTMLKGAFLGLDFFNKECYAITYAGAVQFQTDYKGEKKLAKKYSVRPVRDIYAKLVKEGDDFKEEVKDGQQTIQFAPKPFNDGEVLGAFAVALFEDGGLVYEVMSKVDIETTRKNYSKQANGQAWTKSPGEMYKKTVLRRLCKNIELDFDTIEQAQAFEDSGDMDLNKEVKPPQVSPLNATVIDAEYTEIREGDPNATNQE
B10: SSAP_160: SEQ ID NO: 329; Veillonellaceae bacterium DNF00626 (protein)
chain: KTTGGLQQQQQQQAQALQNGGTTLKGYLQAMMPEIKKALPTVMTPERFTRIVMTTISTNPALQNCTPQSFLGAVMQAAQLGVEPNTPLGQAYLIPYGNQVQFQLGYKGLIDLAYRSGEVQSLQAHEVYQNDTFEYELGLNPKLKHIPALTNRGDVILYYAVIKFKNGGEGFEVMSKEDVEAFAKSKSKTYGRGPWQTDFDEMAKKTVLKKVLKYAPMKTDFIRAVATDETVKSSVAEQMADLPDETVTIDTEAQVVVDKETGEVKS
modifications: Veillonellaceae bacterium DNF00626
B11: SSAP_298: SEQ ID NO: 467; Nocardia aurea (protein, listed as Nocardia aurea)
chain: SESISAAADAQKVTPRIVLDRHRDAFAQVLPPTINLDRWLRLAESAINASAGLLDIFRRDRGASALKALMKCAQLGHEPGSGLFHLVPKGQAIEGWEDYKGILQRILRSALYAKVVVAPVYANDEYAFDVNVDERPRHKQAAGDRGEPVRAYAYAVHRDGSTSTIAEATPAMIAGAKAKGHKTDASTSPWQNPRAPMHQKVAVRELERFVSTSAVDLRVTGDVTDLIIEEP
B12: SSAP_271: SEQ ID NO: 440; Nocardia ninae (protein, listed as Nocardia ninae)
chain: AESISKEVARQANPLAVVAKYQNELGKSMPAAIRGDVGRWMMVAEMAVRKNPKLLSIVQADQGASLMRALIECARLGHEPGTKYFYLVPRGNQISGEEGYHGIIKRVLNSGHYQKVLARTVFERDEYSFDPLTDQLPTHVPASGERGKPVSAYAFALHWDGTPSTVAEASPERIAAAKAKSYGTDRKDSPWQSVTGVMYRKTAIRELEPYVHTSAEPQPRQDNAGSRGAVMDPSTYDDAEPLDADVLDITADQIAEHDGEGAL
B13: SSAP_285: SEQ ID NO: 454; Chitinophaga lutea (protein, listed as Chitinophaga lutea)
chain: SNVNAPAAPVKSKIEVLKDIMNAPSVQEQFQNALRENSGVFVASVIDLFNSDTYLQNCEPKQVVMECLKAATLKLPINKNLGFAYVVPYKSNGKQIPQFQIGYKGYIQLAMRTGQYRIINADKVYEGEYRTKNKLTGEFDLSGTATSETVVGYFAHIEMLNGFAKTLYMTKEKVAAHAKKYSKSFGKETSPWHTEFDAMALKTVLRNLLSHYGYLSVEMMGAMNADIESDQVGSEVSQTINDKANKQEMTFDDAEVVDDDEKEQNPI

Assays:
Assay type in all cases: cell-based
gene editing with Cas9 = experiment: Screen of 322 new SSAP proteins, gene editing activity with Cas9 (Table 5); set-up: Cas9 with SSAP activity: scale not given here
Description: (§1) 322 new SSAP proteins were identified from sequence data, synthesized, and screened for activity with Cas9 and dCas9. Gene editing activities are shown below in Table 5, followed by amino acid sequences of the proteins.

gene editing with dCas9 = experiment: Screen of 322 new SSAP proteins, gene editing activity with dCas9 (Table 5); set-up: dCas9 with SSAP activity: scale not given here
Description: as §1

[1] = system: gene editing with Cas9 and dCas9; experiment: Screen of 322 new SSAP proteins, activity across all experiments (Cas9 and dCas9, Table 5); set-up: scale not given here
Description: as §1

Molecule | Cas9 with SSAP activity (gene editing with Cas9) | Cas9 with SSAP activity (normalized) (gene editing with Cas9) | dCas9 with SSAP activity (gene editing with dCas9) | dCas9 with SSAP activity (normalized) (gene editing with dCas9) | Activity across all experiments [1]
B1 | 0.824 | 0.919 | −3.897 | −0.611 | −1.537
B2 | 0.575 | 0.280 | −3.974 | −0.714 | −1.700
B3 | −1.881 | −0.590 | 1.313 | 1.563 | −0.284
B4 | 2.444 | 1.806 | −4.016 | −0.671 | −0.786
B5 | −0.504 | −0.093 | −3.935 | −0.892 | −2.219
B6 | 0.045 | 0.060 | −3.743 | −0.597 | −1.849
B7 | −3.406 | −0.596 | −3.777 | −0.714 | −3.591
B8 | −5.271 | −0.961 | −3.846 | −0.563 | −4.559
B9 | 0.282 | 0.572 | −3.899 | −0.575 | −1.809
B10 | 1.888 | 0.942 | −3.690 | −0.763 | −0.901
B11 | 0.510 | 0.610 | −3.790 | −0.578 | −1.640
B12 | 0.372 | 0.623 | −3.947 | −0.622 | −1.788
B13 | −1.178 | −0.366 | −3.704 | −0.608 | −2.441
